Measurements as given in US20180355053A1 (Stanford University, published 2018).

Assays:
[1] = molecular target: T1, human CD47 tagged with mouse Fc (human, UniProt Q08722 19-139, limits assumed); assay: ELISA on immobilized recombinant CD47
T1 construct: also called recombinant CD47 antigen
Procedure: FIG. 7: SIRPα-rituximab bispecific reagents bind to CD47 with reduced affinity relative to anti-CD47 and other bispecific antibody formats. Binding of the indicated antibodies to the recombinant CD47 antigen was measured by ELISA over a range of concentrations. Immobilized human CD47 tagged with mouse Fc was used to capture the indicated antibodies prior to detection with HRP-conjugated antibody directed against the human kappa light chain. Data are representative of three experiments performed in triplicate.

human CD20 [2] = molecular target: T2, human CD20 (human, UniProt P11836 1-297); assay: flow cytometry on CD20+CD47- YB2/0 cells
T2 construct: whole, on cells; also called MS4A1
T2 sequence (looked up): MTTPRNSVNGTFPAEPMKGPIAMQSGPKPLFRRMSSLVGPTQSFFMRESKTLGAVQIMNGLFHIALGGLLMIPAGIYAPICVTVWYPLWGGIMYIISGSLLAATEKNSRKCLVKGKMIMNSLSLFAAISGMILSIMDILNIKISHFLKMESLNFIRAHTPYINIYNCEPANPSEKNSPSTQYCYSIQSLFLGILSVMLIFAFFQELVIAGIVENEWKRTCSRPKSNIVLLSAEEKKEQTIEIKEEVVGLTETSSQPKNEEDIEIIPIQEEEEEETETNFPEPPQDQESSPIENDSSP
Text: FIG. 3A-3B: SIRPα-rituximab bispecific reagents bind to CD20 on the cell surface. The indicated antibodies were used to stain rat YB2/0 cells engineered to express human CD20, but not human CD47 (CD20+CD47−) prior to detection with anti-human secondary antibody by flow cytometry. 2B8=anti-CD20, B6H12=anti-CD47.

human CD47 = molecular target: T3, human CD47 (human, UniProt Q08722 19-323); assay: flow cytometry on CD20-CD47+ YB2/0 cells
T3 construct: whole, on cells
Text: FIG. 5A-5B: SIRPα-rituximab bispecific reagents bind to CD47 on the cell surface with reduced affinity relative to anti-CD47. The indicated antibodies were used to stain rat YB2/0 cells engineered to express human CD47, but not human CD20 (CD20−CD47+) prior to detection with fluorescently tagged anti-human secondary antibody by flow cytometry. 2B8=anti-CD20, B6H12=anti-CD47.

human CD20 [3] = molecular target: T2, human CD20; assay: flow cytometry competition with 10 µg/ml DyLight 488 anti-CD20 on CD20+CD47- YB2/0 cells
Text: FIG. 4: SIRPα-rituximab bispecific reagents bind to CD20 with similar affinity as parental antibody.

Measured: binding result

B1: CD20-2GL-SIRPα (bispecific antibody, human IgG1, kappa)
heavy: not shown
light: QIVLSQSPAILSASPGEKVTMTCRASSSVSYIHWFQQKPGSSPKPWIYATSNLASGVPVRFSGSGSGTSYSLTISRVEAEDAATYYCQQWTSNPPTFGGGTKLEIKRTVAAPSVFIFPPSDEQLKSGTASVVCLLNNFYPREAKVQWKVDNALQSGNSQESVTEQDSKDSTYSLSSTLTLSKADYEKHKVYACEVTHQGLSSPVTKSFNRGEC
notes: Wild type human SIRPα N-terminal Ig fold fused to the C terminus of the rituximab heavy chain through (GGGGS)2; also called CD20-2GL-SIRPα HC; SIRPabody
binds: [1] | human CD20 [2] | human CD47

B2: CD20-4GL-SIRPα (bispecific antibody, human IgG1, kappa)
heavy: not shown
light: B1 light
notes: Wild type human SIRPα N-terminal Ig fold fused to the C terminus of the rituximab heavy chain through (GGGGS)4; also called SIRPabody; SIRPα-rituximab bispecific reagent
binds: [1] | human CD20 [2] | human CD47

B3: SIRPα-CD20 (bispecific antibody, human IgG1, kappa)
heavy: not shown
light: B1 light
notes: also called SIRPabody; SIRPα-rituximab bispecific reagent
binds: [1] | human CD47 | human CD20 [3]
